Measurements as given in the supplement of paper PMC12042874.
± gives the uncertainty stated by the source.

Experiment: amyloid nucleation score (Sup35N fusion, yeast selection) (log enrichment); library NNK1; higher = more nucleation; inactive = no reads after selection
Method in brief: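 Yeast lacking psi expressed peptides of 20 random codons fused to Sup35N, received 100 μM copper sulfate for 24 hours, and were then grown for 7 days at 30°C on medium lacking adenine and uracil. Illumina sequencing of input and output plasmid inserts provided the reads. Nucleation scores are DiMSum log enrichments of output over input, centred on the mode of non-aggregating sequences. Any sequence with under 100 input reads was excluded.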

Substance	amyloid nucleation score
TDIVVCSCDGFWKYSYIGGL	2.18 ± 0.12
RCDLARVLLMGRWLGPNAVW	-0.359 ± 0.67
SAHSDPQMRKNSLTYGNDLI	-0.116 ± 0.42
MRHGSKAWQLYRLFKYDFFW	0.534 ± 0.9
RDSLSSVSA	-0.382 ± 0.62
YKVSKMNRRDTNGNLVNRRV	-0.211 ± 1.2
QFDCPEHKRIHYRGPHPKRK	-0.356 ± 0.33
CSGLNVSLSRRQVVVLSV	-0.632 ± 0.33
FVRVANMVAWYNASRRLR	inactive
YDYGVESLRLVVLCNDLWFL	-0.346 ± 0.4
SAPENSWGAWLDYGELEVGW	0.016 ± 0.35
KIALTLIRRLQFLNDSVKPQ	1.71 ± 0.17
DTSSACLCNRDRSDLLVCRV	inactive
NGNDDLSQTTEVKGYVGATL	-0.3 ± 0.37
RVSKFPKSFNVSFKADNKIH	4.02 ± 0.06
AVLWTHQYFYYYIGLAF	-0.267 ± 0.68
GSTSCK	0.79 ± 0.43
PNRSLCTVNMCIYVETGFMV	inactive
LFCVSDSPCVCGRHSISYDW	-0.601 ± 0.9
YYSYMNCIMITISLLMLVLQ	-0.052 ± 0.21
YSAALRHGQRHKWRSGRKIG	0.674 ± 1.2
LTSCASLWEDRVVLSCLPGG	inactive
DVLLSFEYLD	inactive
FMMCAYSLVPILLP	0.136 ± 1.1
NSSPNKCFAGSQGSFISFWD	-0.599 ± 0.62

Substance	amyloid nucleation score
NISRAVHTRMGGYMSPTWLK	0.833 ± 0.5
LDQRKGPFSNSALRGHSWCN	-0.506 ± 0.44
SGIVLTG	-1.06 ± 2.1
YYRKHFRLYIIIWDLFKI	0.282 ± 0.97
VPPCEWHRRTYR	0.176 ± 1.1
TFSYILDWFEVSLTHRGALI	0.192 ± 0.41
RYSLYQSEWVGKSMRDLTAR	1.03 ± 0.62
FFHAIIWRLIYRQFPDFVG	0.984 ± 0.43
KDVFY	-0.294 ± 0.5
NTLYYRSFRAIQLPGGENQN	-1.09 ± 1.9
LNRVFEDHWVLTLAVLHTSR	inactive
SGDRAYFSKFSVCIPRDRVQ	-0.046 ± 0.67
MLWTCKDNLCKDMTHVWSIY	inactive
LYFQAFHYQQWCIWFYFYIL	1.42 ± 0.49
EDSYFYFRIEGISTVKCMAR	-0.427 ± 1.9
GYNVAFILHTTVKCVCVEM	0.757 ± 0.41
FRYIYMMDMSSYQYVKRGSS	inactive
CFRELPYSLYNC	-0.666 ± 0.42
GAVPDPKVVGMGFQMGAVNS	0.877 ± 0.7
LFYPFTLHWVCCSWCLYEVR	6.927 ± 0.056
SVVMHSWLLLIVTSGSFMYV	0.218 ± 0.53
VWCVFFLVLYFYR	0.422 ± 0.57
FLIFIRFNGHCLSIGWFTLH	0.303 ± 1
RVNYDVLVHLMPGLWVRTRL	0.372 ± 1.4
TERDLYDILTKTMGIGVSRW	-0.544 ± 0.57

Substance	amyloid nucleation score
NYICMGP	1.38 ± 0.41
YAVCRLANSSGSRHVFLCHT	0.527 ± 0.31
VISPNSLTCCAH	-0.146 ± 0.93
CMPCSDFGSLWVAMDMNCFR	4.1 ± 0.085
RVCKYGCAKT	0.566 ± 0.34
YLICWVIPGSNVGLMVGMTA	0.093 ± 1.4
VGFRGVLQIPGLSFPEALVR	0.024 ± 0.46
YHRGIYLFSRSC	-0.906 ± 0.88
FSNNLHLWAITSVLNIQTSN	6.245 ± 0.053
LSSDADFKNNSLFRESDKYV	-0.297 ± 0.22
NPAITGRFSYCT	0.456 ± 1.2
HSVLVVSVVHCGFKQKRNK	3.98 ± 0.15
YIVYFESRN	0.438 ± 0.16
CPLTGDRTAVRHMRKSAFAE	-0.525 ± 0.4
DSRGHGEPRRTWEW	-0.006 ± 0.58
SGQMSLWSYL	0.781 ± 0.59
TYRLIRSFC	0.368 ± 0.4
TLIIGYRA	0.964 ± 0.51
MVWPFKRRRWHYGILALLDR	-1.22 ± 0.75
DLTCWLLFFNLLYSI	0.492 ± 0.33
KSMECSFAWLWDSREFIFCH	-1.67 ± 1.4
MAVSNLSDLRLMSMRHFS	-0.794 ± 0.95
WFTGGFRVIMGS	0.728 ± 0.97
FIFCAGCVENNTSSPK	6.224 ± 0.059
SCKFMIYNSVGAGSLGHVNR	4.69 ± 0.094

Substance	amyloid nucleation score
FQTFSSICYMISFLIVG	0.928 ± 0.68
MSFQY	-2.11 ± 1.9
LLNMCNNESTLERNPF	1.93 ± 0.37
WIAFERPAYVDSWHLTRNRP	0.109 ± 0.24
HRWTLMEVYITGIALKYVVY	-0.58 ± 0.76
SSNRLSSMQG	1.09 ± 0.38
NFCFTVFLEVNAVKMRIYF	-0.798 ± 1.1
SDEGN	1.55 ± 0.53
LLSHQVTPSGRYSFSLCKSW	0.873 ± 0.84
VLWHGLVVRSGNVEIVRSMC	-0.175 ± 0.96
VEEGNMRCSNLMTLEHTTHK	-0.582 ± 0.42
AHLAVPSQLNECFIVSLWV	0.328 ± 0.76
LISNRPMW	0.29 ± 0.48
SSGYGECAFVT	-0.055 ± 0.33
PVTSTIHRHPFFHVTTGDRM	-1.32 ± 0.94
YRKRYDWWTVEAVLASVFGS	1.18 ± 0.57
TDWARTRSQRHVLHDSPAGL	-0.452 ± 1.4
HALTSDRYWKERPTIPRFRF	-0.174 ± 0.36
RCFECEGALV	-0.08 ± 1.1
RDYSFGGLMPGCDGEHIVS	-0.138 ± 0.4
FLGGDTRIDHGTLWWSLIRQ	0.032 ± 0.35
IFRFSNFR	5.822 ± 0.054
NCNLSQWLIRQPKRAVSTHT	0.243 ± 0.33
EHSSVCLESSQYVRMVVIKQ	0.531 ± 0.66
YINLVLGFSYVFLLGLANRM	-0.773 ± 0.24

Substance	amyloid nucleation score
LVRLVVLLKEPGEDRFIIEH	-0.427 ± 0.79
RCDYVEWIWYPCYRRNGVCR	0.171 ± 0.39
GDHFPEDGYSLEIADR	-0.737 ± 1.2
ESQSRGLMIVNGDFKD	0.018 ± 0.37
FRNSLSYIVLSCLAMFFNDG	0.967 ± 0.32
YADNSSTLMSDILFTIYRIG	1.06 ± 0.095
CSYPVECSGSMYVSEKTSIF	inactive
KIATKGNIF	-0.951 ± 0.53
PVRQLERSNRLLKQGRRPLG	0.512 ± 0.49
YLCLAECSLSPYNTTLVGGV	-1.6 ± 0.81
ASLLMLLVGRKICLAQVNKG	0.412 ± 0.51
YDFLPRVNNPLSRNLRHRAL	-0.071 ± 0.56
ISSLYLMSFCILFPPRKFVY	-1.09 ± 0.51
SSYCNLVASIL	0.649 ± 0.53
SKFFQLFSVTILYAMDSGPC	-0.462 ± 0.7
SECLLYSWRVILSRLSPESE	0.257 ± 0.62
LFRFNWLDSNPV	inactive
TRYLRIWSPSQMICMWGRFL	0.145 ± 0.5
KLDMGVLPFANWSVDT	-0.032 ± 0.28
ILIRNIMCSGSVSLSNLGSG	-0.134 ± 1
AHSCDGPCRPHVTAVKALVL	0.089 ± 0.48
VSTLA	inactive
GVGNTRQRVFRVVHCLAMLQ	0.634 ± 0.88
LHFVERLSLRPMGVVGFSRK	-0.178 ± 0.7
WAVSGVDKVTRLGSEGVMQS	-0.809 ± 0.9

Substance	amyloid nucleation score
HSSPLGLLWGAPARRRYCRR	-0.32 ± 0.87
VFVVSVNHRMIVNFTSCLNV	inactive
YILSISYYFPRGMVDIVMFM	0.5 ± 0.48
YIHGGVMCKDPAPFSYFASI	-0.114 ± 0.59
CAVQQYRNRRGNM	0.152 ± 0.65
KYTYGRHTQLVLDSIHSWLN	0.235 ± 0.75
DLYSGSSFPEISGETSGYIP	0.06 ± 0.49
VMLTPRDLGLVPIGLDHVRG	-0.236 ± 0.38
GFNLSRTAMMICFGYFTA	6.61 ± 0.073
LIVVVTLSGEHRFSVMVYRN	-0.001 ± 0.64
LVVFLNC	-0.607 ± 0.39
KWNFVHMDQKGKELNSLFSL	-0.649 ± 0.54
LCIWYICRT	3.2 ± 0.16
RSDISASHRSVGLLNSHRTD	-0.58 ± 1.5
TFSFTAYNPCFDSFSTVGLS	-0.147 ± 0.45
MMPFYHSNSR	-1.38 ± 1.1
AQLGDDYVRCHSTILSTRRL	0.167 ± 0.62
TLCPLDFHRDTARELCPRGV	0.049 ± 0.4
AGVCRNNSPLIHTFNF	0.728 ± 0.64
SRPDVLYCDIFHFRHQILSF	-0.173 ± 0.75
CRRNGGTLMAGE	1.21 ± 0.76
HCILHKANFRGFTHSSYEVG	4.68 ± 0.1
WNSSYDGRFIAYAMQWSNKE	-0.118 ± 0.48
MALLARFRGAFLVCSGFIAC	-1.56 ± 2.4
LLNRSALCWMCCTKDSWLLT	7.073 ± 0.061

Substance	amyloid nucleation score
SKKIVGIFYKVCSRRLFMVC	0.456 ± 0.6
LRRGKLDLDHPLVNKWRKKG	-0.005 ± 0.67
TIVSGTRSYNLHRSILLLHL	1.5 ± 0.23
FRVLWDYCVSSTVRRVTSLG	inactive
HTSFGVCVSVICFVLRWAYH	inactive
QVIEKFVAGCEGQKR	2.31 ± 0.14
QIINKFTSDIVLTD	0.456 ± 0.38
GLNLNRFWRLGATFILYLQT	1.19 ± 0.54
YSYVRVIFYV	0.145 ± 1
LKVPCL	-0.067 ± 0.59
ALKQPVYDGRGPRLGIGPRR	-0.124 ± 1
ININGNVY	0.849 ± 1.1
GLYFGLQLTGVS	0.04 ± 0.35
YVGAMCLTRGKVRRSEERN	0.553 ± 0.54
IVNAKLSWSYPGIIRLCHCE	0.43 ± 0.28
SNEYYPSLHYRVSVGKGLGR	-0.154 ± 1.2
VVAAILHKLS	-0.16 ± 0.41
VLDMKFKYNVPSLK	5.41 ± 0.06
YTVRGRDYNGAM	-1.3 ± 2.4
